Measured values reported in patent US20050037012A1.
Where a chain is given by its changes, count along the chain named. Blank lines part the entries; values can stand above or below the molecule they belong to.

How the values were obtained:
Test in all cases: cell-based or functional assay
[1] = biological target: human IL-28 receptor (IL-28 receptor alpha subunit with CRF2-4) on 293 HEK cells (human)
[2] = biological target: T1, mouse IL-28 (zcyto24) (mouse) (UniProt Q4VK74)
T1 sequence: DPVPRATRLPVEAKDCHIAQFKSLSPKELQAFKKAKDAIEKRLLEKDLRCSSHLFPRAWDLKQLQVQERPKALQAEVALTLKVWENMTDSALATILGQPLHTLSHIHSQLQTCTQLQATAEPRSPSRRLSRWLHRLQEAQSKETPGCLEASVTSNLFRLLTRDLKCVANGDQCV

[3] = biological target: T2, human IL-28A (human) (UniProt Q8IZJ0)
T2 sequence: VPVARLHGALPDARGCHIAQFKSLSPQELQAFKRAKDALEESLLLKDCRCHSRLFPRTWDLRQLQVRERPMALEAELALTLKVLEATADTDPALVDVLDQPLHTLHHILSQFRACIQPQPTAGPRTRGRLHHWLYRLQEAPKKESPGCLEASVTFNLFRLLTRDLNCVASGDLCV

[4] = biological target: human IL-29 (human) (UniProt Q8IU54)
human IL-29 (human), sequence (Q8IU54 20-200): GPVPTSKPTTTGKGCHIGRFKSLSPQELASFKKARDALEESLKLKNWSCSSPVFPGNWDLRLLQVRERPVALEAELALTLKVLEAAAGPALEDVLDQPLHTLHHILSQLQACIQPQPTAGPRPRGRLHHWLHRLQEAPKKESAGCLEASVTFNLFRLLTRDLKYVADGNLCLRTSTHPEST

human IL-28 receptor (IL-28 receptor alpha subunit with CRF2-4) on 293 HEK cells (human), sequence (Q8IU57 whole entry, chain 1 of 2): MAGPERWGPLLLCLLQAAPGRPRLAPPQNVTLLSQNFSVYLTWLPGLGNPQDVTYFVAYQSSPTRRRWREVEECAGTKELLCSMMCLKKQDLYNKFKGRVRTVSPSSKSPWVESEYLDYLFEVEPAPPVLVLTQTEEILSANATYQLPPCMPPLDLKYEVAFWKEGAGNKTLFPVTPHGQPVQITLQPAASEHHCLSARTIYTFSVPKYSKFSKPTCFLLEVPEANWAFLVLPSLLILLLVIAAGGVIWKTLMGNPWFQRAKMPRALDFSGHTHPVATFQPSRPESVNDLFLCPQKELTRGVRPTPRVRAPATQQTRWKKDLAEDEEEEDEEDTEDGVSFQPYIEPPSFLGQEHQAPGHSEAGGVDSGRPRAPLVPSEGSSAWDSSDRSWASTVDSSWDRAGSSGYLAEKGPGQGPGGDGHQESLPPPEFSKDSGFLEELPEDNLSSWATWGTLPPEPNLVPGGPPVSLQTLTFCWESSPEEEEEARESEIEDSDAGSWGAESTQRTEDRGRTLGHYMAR
human IL-28 receptor (IL-28 receptor alpha subunit with CRF2-4) on 293 HEK cells (human), sequence (Q08334 whole entry, chain 2 of 2, further chain): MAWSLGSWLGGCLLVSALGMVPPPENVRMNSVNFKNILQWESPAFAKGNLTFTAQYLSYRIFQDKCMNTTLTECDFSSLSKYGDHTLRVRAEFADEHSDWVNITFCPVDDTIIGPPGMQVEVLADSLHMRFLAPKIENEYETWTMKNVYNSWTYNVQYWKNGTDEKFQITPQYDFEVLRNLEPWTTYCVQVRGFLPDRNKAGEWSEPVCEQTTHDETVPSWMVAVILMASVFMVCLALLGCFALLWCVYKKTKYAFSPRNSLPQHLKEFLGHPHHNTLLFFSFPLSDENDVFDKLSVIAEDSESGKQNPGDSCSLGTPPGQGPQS

- ISRE-luciferase signaling, fold induction over medium alone; HuIL10 at 100 ng/ml; 293 cells transfected with ISRE-Luc. and IL-28R (fold induction) [1]: 0.5
Molecule: huIL10 (from UniProt P22301 19-178) (ligand)

- ISRE-luciferase signaling, fold induction over medium alone; Zcyto10 at 125 ng/ml; 293 cells transfected with ISRE-Luc. and IL-28R (fold induction) [1]: 1
Molecule: zcyto10 (from UniProt Q9NYY1 25-176) (ligand)

- Percent Inhibition of Ligand-induced ISRE Signaling by Soluble Receptors; 10 ng/ml ligand, 10 micrograms/ml soluble receptor; 293 HEK cells overexpressing zcytor19 [2]: 47%
- Percent Inhibition of Ligand-induced ISRE Signaling by Soluble Receptors; 10 ng/ml ligand, 10 micrograms/ml soluble receptor; 293 HEK cells overexpressing zcytor19 [3]: 16%
- Percent Inhibition of Ligand-induced ISRE Signaling by Soluble Receptors; 10 ng/ml ligand, 10 micrograms/ml soluble receptor; 293 HEK cells overexpressing zcytor19 [4]: 16%
Molecule: human zcytor19-Fc/human CRF2-4-Fc heterodimer soluble receptor (Fc fusion)

- Percent Inhibition of Ligand-induced ISRE Signaling by Soluble Receptors; 10 ng/ml ligand, 10 micrograms/ml soluble receptor; 293 HEK cells overexpressing zcytor19 [2]: 89%
- Percent Inhibition of Ligand-induced ISRE Signaling by Soluble Receptors; 10 ng/ml ligand, 10 micrograms/ml soluble receptor; 293 HEK cells overexpressing zcytor19 [3]: 91%
- Percent Inhibition of Ligand-induced ISRE Signaling by Soluble Receptors; 10 ng/ml ligand, 10 micrograms/ml soluble receptor; 293 HEK cells overexpressing zcytor19 [4]: 103%
B1: murine zcytor19-Ig homodimer soluble receptor (Fc fusion, mouse, UniProt Q8CGK5 21-227, looked up, not shown: a dimerising Fc or GST)
chain: RPRLAPPRNVTLFSQNFTVYLTWLPGLGSPPNVTYFVTYQSYIKTGWRPVEHCAGIKALVCPLMCLKKLNLYSKFKGRVQAASAHGRSPRVESRYLEYLFDVELAPPTLVLTQMEKILRVNATYQLPPCMPSLELKYQVEFWKEGLGSKTLFPDTPYGQPVQIPLQQGASRRHCLSARTVYTLIDIKYSQFSEPSCIFLEAPGDKRA

Continued, molecule first:

Molecule: human CRF2-4-Fc homodimer soluble receptor (Fc fusion)
- Percent Inhibition of Ligand-induced ISRE Signaling by Soluble Receptors; 10 ng/ml ligand, 10 micrograms/ml soluble receptor; 293 HEK cells overexpressing zcytor19 [2]: 82%
- Percent Inhibition of Ligand-induced ISRE Signaling by Soluble Receptors; 10 ng/ml ligand, 10 micrograms/ml soluble receptor; 293 HEK cells overexpressing zcytor19 [3]: 80%
- Percent Inhibition of Ligand-induced ISRE Signaling by Soluble Receptors; 10 ng/ml ligand, 10 micrograms/ml soluble receptor; 293 HEK cells overexpressing zcytor19 [4]: 79%

B2: human IL-28B (ligand)
chain: T2 sequence with H7R, R49K, H51R, M71V, V95G, F112L, Y135H
- ISRE-luciferase signaling, fold induction over medium alone; IL-28B at 125 ng/ml; 293 cells transfected with ISRE-Luc. and IL-28R (fold induction) [1]: 104

B3: human zcytor19-Fc homodimer soluble receptor (Fc fusion, not shown: a dimerising Fc or GST)
chain: RPRLAPPQNVTLLSQNFSVYLTWLPGLGNPQDVTYFVAYQSSPTRRRWREVEECAGTKELLCSMMCLKKQDLYNKFKGRVRTVSPSSKSPWVESEYLDYLFEVEPAPPVLVLTQTEEILSANATYQLPPCMPPLDLKYEVAFWKEGAGNKTLFPVTPHGQPVQITLQPAASEHHCLSARTIYTFSVPKYSKFSKPTCFLLEVPEANWA
- Percent Inhibition of Ligand-induced ISRE Signaling by Soluble Receptors; 10 ng/ml ligand, 10 micrograms/ml soluble receptor; 293 HEK cells overexpressing zcytor19 [2]: 90%
- Percent Inhibition of Ligand-induced ISRE Signaling by Soluble Receptors; 10 ng/ml ligand, 10 micrograms/ml soluble receptor; 293 HEK cells overexpressing zcytor19 [3]: 92%
- Percent Inhibition of Ligand-induced ISRE Signaling by Soluble Receptors; 10 ng/ml ligand, 10 micrograms/ml soluble receptor; 293 HEK cells overexpressing zcytor19 [4]: 45%
